Laboratory results from paper PMC12703665, “A Trifunctional, Rare-Earth Theranostic Chelator Platform to Enable Diagnostic Nuclear Imaging, Surgical Resection, and Radiotherapy” (Journal of the American Chemical Society, 2025).

Columns and labels:
[1] = LogD7.4 lipophilicity measurements (1-octanol/DPBS); type: physicochemical; conditions: 86Y-labeled tracer, 1-octanol/DPBS pH 7.4
Description: Figure S49. Chromatographic analysis of [177Lu]Lu-PSMA-617 and its corresponding non-radioactive reference complex. Absorbance of non-radioactive samples was monitored at 254 nm.
[161Tb]TbCl3 (9.34 µL, 4.0 mCi) and PSMA-617 (12.2 µL, 9.80 µM) were dissolved in a mixture of NaOAc buffer (20.0 µL, 1 M, pH 5.5), DMSO (20.0 µL) and water (38.4 µL). The resulting mixture was vortexed and heated at 80 °C for 20 minutes. Quantitative labeling was confirmed via radio-HPLC (Method D, Rt = 7.73 min – Absorbance monitored at 254 nm).
Figure S50. Chromatographic analysis of [161Tb]Tb-PSMA-617 and its corresponding non-radioactive […]
4.3 LogD7.4 Lipophilicity Measurements pepa-pic2, mepa-pic2, pepa2-pic and pepa2-pic-PSMA were radiolabeled with [86Y]YCl3 and formulated in DPBS 1X pH 7.4 at a concentration of 25-29 µCi/mL. […] Samples were centrifuged for 5 min at 5000 rpm to separate (also on this page, place not known: 02468101214161820 Time (min) Normalized Absorbance (a.u) Normalized Counts (cps) 02468101214161820 Time (min) Normalized Absorbance (a.u) Normalized Counts (cps)) […]
both layers. […] LogD7.4 values calculated according […]
Female BALB/c mice were purchased from Jackson Laboratory. Biodistribution profiles of Y-86 labeled mepa-pic2, pepa-pic2 and […] were first evaluated in healthy naïve mice. […]
Table S1. […] Values expressed as % ID/g. Error expressed as ± 1 SD for n = 4. […]

[2] = system: PC-3 PIP/flu (PSMA+/PSMA–) tumor xenografts; assay: in vivo
Description: For in vivo evaluation, athymic nude mice-bearing bilateral PC-3 PIP/flu (PSMA^+/PSMA^–) tumor xenografts were used (Figure ).
5.1.1 Urine metabolite analysis
Metabolite analysis was performed by analyzing aliquots of 100 µL of mouse urine collected during biodistribution studies. If the collected urine volume was less than 100 µL, 1X DPBS was added in order to bring it up to a final volume of 100 µL. In cases where the radioactivity present in urine decayed to levels too low for detection by HPLC, fractions eluted from the radioHPLC were collected every 30 seconds, and the amount of radioactivity was estimated via gamma counting (Hidex Automatic Gamma Counter). The chromatogram was then reconstructed by plotting the recorded counts per minute recorded for each fraction […]
5.2 In vitro optical imaging
Tumor tissues were harvested from male, nude, athymic mice bearing xenografts from PC3-PIP (PSMA+) and PC3-flu (PSMA-) were fixed for (24) hours in 10% neutral buffered formalin, processed and embedded into paraffin blocks. Tissues were sectioned at 5µm, dried and then deparaffinized with a 25-minute oven bake at 60°C, followed by a series of xylene and alcohol washes
Antigens were prepared in PerkinElmer’s 1X Antigen Retrieval pH 9.0 (AR900250ML) for 8 minutes in the microwave. Tissue sections were blocked with 1X Antibody Diluent/Block buffer (Akoya).
Ab-PSMA, natEu-pepa-pic2-C-Hex-KuE and DAPI staining.
Tissues were stained with Ab-PSMA (Ventana 760-6076; 11.75 µg/mL; 100uL per slide) for 30 minutes at room temperature. Slides were washed with TBS-T and secondary goat anti-rabbit was applied for 10 minutes at room temperature. Slides were washed with TBS-T and Akoya’s Opal dye 520 was applied for 10 minutes at room temperature. Antigen retrieval and blocking steps were performed again.
An aqueous solution of natEu-pepa-pic2-C-Hex-KuE (10 µM) was diluted at 1:1 with 1X Diluent/Block (Akoya) and 100 µL were applied per slide for 2 hours at room temperature. For DAPI staining, DAPI working solution (Akoya) was applied for 10 minutes at room temperature before mounting with ProLong™ Gold Antifade Mountant. Slides were imaged by Nuance Multispectral Scope at 20x objective.
5.3 In vivo biodistribution in PSMA +/- mice models, PET-CT and SPECT imaging.
Male, nude, athymic mice were purchased from Jackson Laboratory. Ten days preceding the imaging study, mice were implanted with 1 × 10^6 cells (PC-3 PIP on the right, PC-3 flu on the left shoulder) in 100 µL of a 1:2 mixture of DPBS 1X/matrigel matrix subcutaneously.
A solution of 100 µL of labeled radiotracer was administered via tail vein injection into 8–10-week-old male nude mice (n = 4 per cohort) bearing PSMA+/- tumors.
For biodistribution studies, mice were euthanized at 2 hours (n=4) post-injection of the radio tracer. Organs were extracted, intestinal content removed, and activity assessed via a gamma counter. Biodistribution analysis values are represented as percentage of injected dose per gram of organ weight (% ID/g).

[3] = 2 h post injection, n = 4, listed as [86Y]YIII-pepa-pic2-C-Hex-KuE

COCCOCCOCCOc1ccc(C#Cc2cc(CN3CCN(Cc4cccc(C(=O)O)n4)CCN(Cc4cc(SC[C@H](N)C(=O)NCCCCCC(=O)NCCCC[C@H](NC(=O)N[C@@H](CCC(=O)O)C(=O)O)C(=O)O)cc(C(=O)O)n4)CC3)nc(C(=O)O)c2)cc1 [[86Y]Y-pepa-pic2-C-Hex-KuE, metal not drawn]
logD7.4 [1]: −2.98
Blood [2, 3]: 1.22 ± 1.01 % ID/g
Bone [2, 3]: 0.74 ± 0.21 % ID/g
Heart [2, 3]: 0.54 ± 0.25 % ID/g
Large Intestine [2, 3]: 1.64 ± 0.79 % ID/g
Liver [2, 3]: 1.00 ± 0.32 % ID/g
Lungs [2, 3]: 1.96 ± 0.84 % ID/g
Muscle [2, 3]: 0.35 ± 0.13 % ID/g
Small Intestine [2, 3]: 0.59 ± 0.25 % ID/g
Spleen [2, 3]: 2.43 ± 1.34 % ID/g
Tumor + ([2]; PSMA+ tumor, 2 h post injection, n = 4, listed as [86Y]YIII-pepa-pic2-C-Hex-KuE): 12.53 ± 2.95 % ID/g
Tumor - ([2]; PSMA- tumor, 2 h post injection, n = 4, listed as [86Y]YIII-pepa-pic2-C-Hex-KuE): 1.20 ±0.45 % ID/g
enhancement of probe localization in kidneys compared to tumor tissue ([2]; imaging and biodistribution data): 6–10 fold
